Measured values from patent US20170233497A1.

Target: IgG1Δhinge fragment of IgG1-7D8-K409R (human)
Assay: native mass spectrometry; CH2-CH3 fragment mixed 24 h with the IgG1Δhinge fragment of IgG1-7D8-K409R (heterodimer)

B1: CH2-CH3 fragment of human IgG1 with F405L, P01857 224-330 (protein, UniProt P01857-1 224-330, looked up, name in EU numbering, not shown: small tags and cut ends)
chain: GQPREPQVYTLPPSRDELTKNQVSLTCLVKGFYPSDIAVEWESNGQPENNYKTTPPVLDSDGSFLLYSKLTVDKSRWQQGNVFSCSVMHEALHNHYTQKSLSLSPGK
Kd: 12 nM

B2: CH2-CH3 fragment of human IgG1 with T350I-K370T-F405L, P01857 224-330 (protein, UniProt P01857-1 224-330, looked up, name in EU numbering, not shown: small tags and cut ends)
chain: GQPREPQVYILPPSRDELTKNQVSLTCLVTGFYPSDIAVEWESNGQPENNYKTTPPVLDSDGSFLLYSKLTVDKSRWQQGNVFSCSVMHEALHNHYTQKSLSLSPGK
Kd: 17 nM
